For this test, the target named is c-Kit (CD 117) receptor tyrosine kinase on DMVEC (human) (UniProt P10721). The experiment in a line: cell-based or functional assay.
Sequence of c-Kit (CD 117) receptor tyrosine kinase on DMVEC (human) (P10721 26-976): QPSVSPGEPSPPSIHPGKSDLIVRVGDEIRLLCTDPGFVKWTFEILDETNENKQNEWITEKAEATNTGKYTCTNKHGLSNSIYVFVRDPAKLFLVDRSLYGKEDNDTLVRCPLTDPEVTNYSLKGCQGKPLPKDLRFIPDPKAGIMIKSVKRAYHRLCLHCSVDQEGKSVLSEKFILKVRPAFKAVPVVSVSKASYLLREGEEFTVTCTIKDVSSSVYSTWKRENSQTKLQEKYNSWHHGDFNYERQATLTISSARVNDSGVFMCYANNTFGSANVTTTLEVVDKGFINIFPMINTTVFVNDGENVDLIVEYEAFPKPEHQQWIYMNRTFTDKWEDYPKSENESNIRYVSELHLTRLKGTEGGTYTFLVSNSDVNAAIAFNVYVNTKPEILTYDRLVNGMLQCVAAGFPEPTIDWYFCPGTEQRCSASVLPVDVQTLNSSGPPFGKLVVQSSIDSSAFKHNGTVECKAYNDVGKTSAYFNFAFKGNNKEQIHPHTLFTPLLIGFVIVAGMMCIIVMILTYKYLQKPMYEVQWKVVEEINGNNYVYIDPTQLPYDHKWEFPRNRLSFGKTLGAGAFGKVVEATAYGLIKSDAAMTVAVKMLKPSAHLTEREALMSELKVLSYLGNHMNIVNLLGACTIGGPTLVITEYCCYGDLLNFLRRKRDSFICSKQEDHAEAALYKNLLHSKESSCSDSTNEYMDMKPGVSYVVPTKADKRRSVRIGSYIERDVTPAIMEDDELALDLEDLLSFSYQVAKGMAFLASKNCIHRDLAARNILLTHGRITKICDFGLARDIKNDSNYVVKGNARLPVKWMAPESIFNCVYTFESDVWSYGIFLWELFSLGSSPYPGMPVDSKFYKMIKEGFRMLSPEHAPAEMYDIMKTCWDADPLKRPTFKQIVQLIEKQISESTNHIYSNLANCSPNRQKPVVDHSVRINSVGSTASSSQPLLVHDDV

“recombinant stem cell factor (SCF) (from UniProt P21583 26-189) (ligand)” displayed an SCF dose giving maximal proliferation (XTT-based assay), mock- and KSHV-infected DMVEC of 50 to 100 ng/mL; a proliferation (XTT-based assay), increase over basal proliferation, KSHV-infected DMVEC below 85%; a proliferation (XTT-based assay), increase over basal proliferation, mock-infected DMVEC below 40%.

For the origin of these results see patent US20030191048A1.
